Consider two proteins from ChEMBL document CHEMBL1145290, “Beta-glucuronidase-cleavable prodrugs of O6-benzylguanine and O6-benzyl-2'-deoxyguanosine” (J Med Chem, 2005).

Substrate in data set [1]: O=C(Nc1nc(OCc2ccccc2)c2[nH]cnc2n1)OCc1ccc(O[C@@H]2OC(C(=O)O)[C@@H](O)C(O)[C@@H]2O)c([N+](=O)[O-])c1
Description: (§1) Vmax value using Escherichia coli beta-glucuronidase obtained at 370 C in MOPS buffer of pH 7.0.

Substrate in data set [2]: O=C(Nc1nc(OCc2ccccc2)c2ncn([C@H]3C[C@H](O)[C@@H](CO)O3)c2n1)OCc1ccc(O[C@@H]2O[C@H](C(=O)O)[C@@H](O)[C@H](O)[C@H]2O)c([N+](=O)[O-])c1
The data set is described as §1.

Substrate in data set [3]: O=C(Nc1nc(OCc2ccccc2)c2[nH]cnc2n1)OCc1ccc(O[C@@H]2OC(C(=O)O)[C@@H](O)C(O)[C@@H]2O)c([N+](=O)[O-])c1
The data set can be described thus: (§2) KM value using Escherichia coli beta-glucuronidase obtained at 370 C in MOPS buffer of pH 7.0.

Substrate in data set [4]: O=C(Nc1nc(OCc2ccccc2)c2ncn([C@H]3C[C@H](O)[C@@H](CO)O3)c2n1)OCc1ccc(O[C@@H]2O[C@H](C(=O)O)[C@@H](O)[C@H](O)[C@H]2O)c([N+](=O)[O-])c1
The description is as §2.

Substrate in data set [5]: O=C(Nc1nc(OCc2ccccc2)c2[nH]cnc2n1)OCc1ccc(O[C@@H]2OC(C(=O)O)[C@@H](O)C(O)[C@@H]2O)c([N+](=O)[O-])c1
The data set can be described thus: (§3) Vmax value using bovine liver beta-glucuronidase obtained at 370 C in MOPS buffer of pH 7.0. To be noted: Bos taurus.

Substrate in data set [6]: O=C(Nc1nc(OCc2ccccc2)c2ncn([C@H]3C[C@H](O)[C@@H](CO)O3)c2n1)OCc1ccc(O[C@@H]2O[C@H](C(=O)O)[C@@H](O)[C@H](O)[C@H]2O)c([N+](=O)[O-])c1
The description is as §3. To be noted: Bos taurus.

Substrate in data set [7]: O=C(Nc1nc(OCc2ccccc2)c2[nH]cnc2n1)OCc1ccc(O[C@@H]2OC(C(=O)O)[C@@H](O)C(O)[C@@H]2O)c([N+](=O)[O-])c1
The data set can be described thus: (§4) KM value using bovine liver beta-glucuronidase obtained at 370 C in MOPS buffer of pH 7.0. The settings on record: Bos taurus.

Substrate in data set [8]: O=C(Nc1nc(OCc2ccccc2)c2ncn([C@H]3C[C@H](O)[C@@H](CO)O3)c2n1)OCc1ccc(O[C@@H]2O[C@H](C(=O)O)[C@@H](O)[C@H](O)[C@H]2O)c([N+](=O)[O-])c1
The data set is described as §4. To be noted: Bos taurus.

B1: Beta-glucuronidase (Escherichia coli (strain K12)), P05804 (protein)
chain: MLRPVETPTREIKKLDGLWAFSLDRENCGIDQRWWESALQESRAIAVPGSFNDQFADADIRNYAGNVWYQREVFIPKGWAGQRIVLRFDAVTHYGKVWVNNQEVMEHQGGYTPFEADVTPYVIAGKSVRITVCVNNELNWQTIPPGMVITDENGKKKQSYFHDFFNYAGIHRSVMLYTTPNTWVDDITVVTHVAQDCNHASVDWQVVANGDVSVELRDADQQVVATGQGTSGTLQVVNPHLWQPGEGYLYELCVTAKSQTECDIYPLRVGIRSVAVKGEQFLINHKPFYFTGFGRHEDADLRGKGFDNVLMVHDHALMDWIGANSYRTSHYPYAEEMLDWADEHGIVVIDETAAVGFNLSLGIGFEAGNKPKELYSEEAVNGETQQAHLQAIKELIARDKNHPSVVMWSIANEPDTRPQGAREYFAPLAEATRKLDPTRPITCVNVMFCDAHTDTISDLFDVLCLNRYYGWYVQSGDLETAEKVLEKELLAWQEKLHQPIIITEYGVDTLAGLHSMYTDMWSEEYQCAWLDMYHRVFDRVSAVVGEQVWNFADFATSQGILRVGGNKKGIFTRDRKPKSAAFLLQKRWTGMNFGEKPQQGGKQ
The Vmax is the rate approached at saturating substrate. A word on the Km: it is the concentration of substrate that gives half-maximal velocity. Turning to B1, the maximal velocity (Vmax) amounted to 7.8 µmol/mg/min in data set [1] and 11 µmol/mg/min in data set [2]. The results for the Km in data set [3] and in data set [4] were 17 µM and 41 µM, respectively.

B2: Beta-glucuronidase (Bos taurus), A3KMY8 (protein)
chain: MLRGSAGAWAVLGPLLWGCGLSLLQGGMLYPRESRSRERKELDGLWSFRADFSDNRRQGFEQQWYRAPLRESGPTLDMPVPSSFNDVGQDGQLRSFVGWVWYEREITLPQRWTEDLGTRVVLRIGSAHYYAIVWVNGVHVLEHEGGHLPFEADISKLVQSGPLSSCRITIAINNTLSPHTLPPGTILYKTDPSMYPKGYFVQNTKFDFFNYAGLHRSVLLYTTPTTYIDDITVTTDMDQDIGLVNYQIIVQGSDHFQVDVSLLDEEGKVMAKGAGAEGQLQVPSAHLWWPYLMHEHPAYLYSLEVKLTAQTAVGPVSDFYTLPVGIRTVAVTKSQFLINGKPFYFRGVNKHEDADIRGKGFDWPLLVKDFNLLRWLGANAFRTSHYPYSEEVLQLCDRYGIVVIDESPGVGIVLVESFSNVSLQHHLEVMEEMIRRDKNHPAVVMWSLANEPASFLKPAGYYFKTLIAHTKALDPSRPVTFVTNTNYEADLGAPYVDIICVNSYYSWYHDYGHMEVIQLQLATQFENWYKAYQKPMIQSEYGADAIEGFHEDPPLMFSEEYQKGLLQQYHVVLDQKRKEYVVGELIWNFADFMTNQSPVRMIGNRKGIFTRQRQPKSAAFLLRERYWKLANETRYQRSAVTSQCVGSGLFTV
As to B2, the maximum rate (Vmax) in data set [5] was determined as 0.27 µmol/mg/min; in data set [6], 0.39 µmol/mg/min. For the same protein, the Km in data set [7] stood at 240 µM; in data set [8], 360 µM.
